Columns and labels:
Conditions in all cases: both partners purified
[1] = target: T1, H-Ras (recombinant, guanine nucleotide-loaded) (UniProt P01112 1-189); test: ITC; 300 µM RGS14(RBD1.RBD2) titrated into 20 µM H-Ras loaded with GDP; 20°C; 20 mM HEPES pH 7.5, 150 mM NaCl, 1 mM MgCl2, 0.5 mM TCEP; single binding site model
T1 construct: H-Ras expressed from pPROEXHTb(H-Ras); Treated with calf intestinal phosphatase, EDTA, TEV protease and GPPNHP before gel filtration; used loaded with GPPNHP or with GDP (two assays); also called H-Ras(GPPNHP); H-Ras(GDP); source: E. coli BL21(DE3), purified (Ni-NTA, gel filtration)

[2] = target: T1, H-Ras (recombinant, guanine …); test: ITC; 300 µM RGS14(RBD1.RBD2) titrated into 20 µM H-Ras loaded with GPPNHP; 20°C; 20 mM HEPES pH 7.5, 150 mM NaCl, 1 mM MgCl2, 0.5 mM TCEP; single binding site model
[3] = target: T1, H-Ras (recombinant, guanine …); test: ITC; 300 µM RGS14(RBD1.RBD2) titrated into 20 µM H-Ras loaded with GDP; 20°C; 20 mM HEPES pH 7.5, 150 mM NaCl, 1 mM MgCl2, 0.5 mM TCEP; single binding site model; remark: listed apart in the source
[4] = target: T1, H-Ras (recombinant, guanine …); test: ITC; 300 µM RGS14(RBD1.RBD2) titrated into 20 µM H-Ras loaded with GPPNHP; 20°C; 20 mM HEPES pH 7.5, 150 mM NaCl, 1 mM MgCl2, 0.5 mM TCEP; single binding site model; remark: listed apart in the source

T1 sequence (P01112 whole entry): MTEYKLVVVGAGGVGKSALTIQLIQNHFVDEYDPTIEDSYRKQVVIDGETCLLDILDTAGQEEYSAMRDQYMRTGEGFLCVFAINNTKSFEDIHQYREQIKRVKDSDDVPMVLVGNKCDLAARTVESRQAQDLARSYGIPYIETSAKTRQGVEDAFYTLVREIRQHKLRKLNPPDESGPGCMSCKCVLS

B1: RGS14(RBD1.RBD2) (domain or fragment)
chain: PGKYCCVYLPDGTASLALARPGLTIRDMLAGICEKRGLSLPDIKVYLVGNEQALVLDQDCTVLADQEVRLENRITFELELTALERVVRISAKPTKRLQEALQPILEKHGLSPLEVVLHRPGEKQPLDLGKLVSSVAAQRLVLDTLPG
For B1, the Kd [1] was > 200 µM, the Kd [2] was ~10 µM and the Ka [3] was 23500 M⁻¹. The dH [3] was -7.1 ± 0.5 kcal/M, the “stoichiometry N” value [3] was 1.05 ± 0.06 and the Ka [4] was 101000 M⁻¹. For the same binder, the dH [4] was -1.81 ± 0.04 kcal/M and the “stoichiometry N” value [4] was 1.03 ± 0.02.

Reference: article PMC2655719 (PLoS ONE, 2009)
